These results are taken from patent US20250002586A1 (CDR LIFE, published 2025).

Numbering of substitutions follows the chain as printed.

Assay [1] deals with MAGE-A4 peptide … presented by HLA-A*02:01 on cells (human). Nature of the assay: cell-based or functional assay.
The target of assay [2] is T1, CD3 heterodimer (Acro Biosystems) (UniProt P07766 23-126). Nature of the assay: SPR (Biacore T200), CD3 heterodimer on HC30M chip; value given for the high affinity CD3 Fab.
Assay [3] has as its target T1, CD3 heterodimer (Acro Biosystems). Nature of the assay: SPR (Biacore T200), CD3 heterodimer on HC30M chip; value given for the low affinity CD3 Fab.
In assay [4] the target is T2, HLA-A*02:01 in complex with the MAGE-A4 peptide … (human).
T2 construct: Recombinant complex as immobilised (500 RU) for SPR; also called HLA-A2/MAGE-A4 complex; pMHC-MAGE-A4 antigen
The experiment in a line: SPR, HLA-A*02:01/MAGE-A4 complex on streptavidin chip; measured in monovalent format.
Procedure: Affinity characterization of HLA-A2/MAGE-A4×CD3 bispecific antibodies was performed by surface plasmon resonance (SPR). All experiments were conducted using a Biacore™ T200 Device (Cytiva). To determine the kinetic parameters of the binding of the bispecific antibodies to the HLA-A2/MAGE-A4 complex, a streptavidin chip (SAHC30M, XanTec) was coated according to the manufacturer's instructions with 500 RU HLA-A*02:01 in complex with the MAGE-A4 peptide. The resulting affinities presented herein correspond to the measurements performed with the respective monovalent antigen binding proteins. […] Uncoated channels were used for referencing. Data fitting was performed using a 1:1 Langmuir model.

Assay [5] deals with T1, CD3 heterodimer (Acro Biosystems). Nature of the assay: SPR (Biacore T200), CD3 heterodimer on HC30M chip; value given for the mid affinity CD3 Fab.

T1 sequence (P07766 23-126, one chain of several): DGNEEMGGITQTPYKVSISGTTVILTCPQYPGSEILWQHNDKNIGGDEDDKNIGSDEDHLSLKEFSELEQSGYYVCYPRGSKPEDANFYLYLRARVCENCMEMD

B1: CDR-6 (bispecific antibody)
heavy: EVQLVESGGGSVQPGGSLRLSCAASGFTFSTYAMNWVRQAPGKGLEWVGRIRSKANNYATYYADSVKGRFTISRDDSKNTLYLQMNSLRAEDTATYYCVRHGNFGDSYVSWFAYWGQGTTVTVSSASTKGPSVFPLAPSSKSTSGGTAALGCLVKDYFPEPVTVSWNSGALTSGVHTFPAVLQSSGLYSLSSVVTVPSSSLGTQTYICNVNHKPSNTKVDKRVEPKSCGGGGSEVQLVESGGGLAQAGGSLRVSCVASGRPFTKYAWGWFRQAPGKAREFVATITWDGGKTDYADSVKGRFTISKDSAENSIYLQMNSLKPEDTAVYYCAADRNYCVGHRCYVRPDDYDYWGQGTQVTVSS
light: AVVTQEPSLTVSPGGTVTLTCGSSTGAVTTSNYANWVQQKPGKSPRGLIGGTNKRAPGVPARFSGSLLGGKAALTISGAQPEDEADYYCALWYSNHWVFGGGTKLTVLGTVAAPSVFIFPPSDEQLKSGTASVVCLLNNFYPREAKVQWKVDNALQSGNSQESVTEQDSKDSTYSLSSTLTLSKADYEKHKVYACEVTHQGLSSPVTKSFNRGECGGGGSEVQLVESGGGLAQAGGSLRVSCVASGRPFTKYAWGWFRQAPGKAREFVATITWDGGKTDYADSVKGRFTISKDSAENSIYLQMNSLKPEDTAVYYCAADRNYCVGHRCYVRPDDYDYWGQGTQVTVSS
On to B1, for which the “U20S cell killing, IC50” value in assay [1] worked out at 0.02 nM.

B2: CDR-14 (bispecific antibody)
heavy: EVQLVESGGGLVQPGGSLRLSCAASGFTFSTYAMNWVRQAPGKGLEWVGRIRSKYNNYATYYADSVKGRFTISRDDSKNTLYLQMNSLRAEDTAVYYCVRHGNFGNSYVSWFAYWGQGTLVTVSSASTKGPSVFPLAPSSKSTSGGTAALGCLVKDYFPEPVTVSWNSGALTSGVHTFPAVLQSSGLYSLSSVVTVPSSSLGTQTYICNVNHKPSNTKVDKRVEPKSCGGGGSSYELTQPPSVSVSPGQTASITCTADTLSRSYASWYQQKPGQSPVLVIYRDTSRPSGIPERFSGSNSGNTATLTISGTQAMDEADYYCATSDGSGSNFQLFGGGTKLTVLGGGGGGSGGGGSGGGGSGGGGSESQVLESGGGSVQPGGSLRLSCTVSGFSLSNYAMSWVRQAPGKGLEYIGIVSSGGTTYYASWAKGRFTISKDTSKNTVYLQMNSLRAEDTASYYCAKDLYYGPTTYSAFNLWGQGTSVTVSS
light: QAVVTQEPSLTVSPGGTVTLTCRSSTGAVTTSNYANWVQQKPGQAPRGLIGGTNKRAPGVPARFSGSLLGGKAALTISGAQPEDEADYYCALWYSNHWVFGGGTKLTVLGTVAAPSVFIFPPSDEQLKSGTASVVCLLNNFYPREAKVQWKVDNALQSGNSQESVTEQDSKDSTYSLSSTLTLSKADYEKHKVYACEVTHQGLSSPVTKSFNRGECGGGGSSYELTQPPSVSVSPGQTASITCTADTLSRSYASWYQQKPGQSPVLVIYRDTSRPSGIPERFSGSNSGNTATLTISGTQAMDEADYYCATSDGSGSNFQLFGGGTKLTVLGGGGGGSGGGGSGGGGSGGGGSESQVLESGGGSVQPGGSLRLSCTVSGFSLSNYAMSWVRQAPGKGLEYIGIVSSGGTTYYASWAKGRFTISKDTSKNTVYLQMNSLRAEDTASYYCAKDLYYGPTTYSAFNLWGQGTSVTVSS
notes: no Fc
B2 came in with a Kd in assay [2] of 1.2 nM.

B3: CDR-12 (bispecific antibody)
heavy: B2 heavy with Y55A, N106D
light: B2 light with R23G, Q44K, A45S
notes: no Fc
With B3, the affinity in assay [3], expressed as Kd, was 54 nM.

B4: CDR-15 (bispecific antibody)
heavy: B2 heavy with N106D, Y470Q
light: QAVVTQEPSLTVSPGGTVTLTCGSSTGAVTTSNYANWVQQKPGKSPRGLIGGTNKRAPGVPARFSGSLLGGKAALTISGAQPEDEADYYCALWYSNHWVFGGGTKLTVLGQPKAAPSVTLFPPSSEELQANKATLVCLISDFYPGAVTVAWKADSSPVKAGVETTTPSKQSNNKYAASSYLSLTPEQWKSHRSYSCQVTHEGSTVEKTVAPTECSGGGGSSYELTQPPSVSVSPGQTASITCTADTLSRSYASWYQQKPGQSPVLVIYRDTSRPSGIPERFSGSNSGNTATLTISGTQAMDEADYYCATSDGSGSNFQLFGGGTKLTVLGGGGGGSGGGGSGGGGSGGGGSESQVLESGGGSVQPGGSLRLSCTVSGFSLSNYAMSWVRQAPGKGLEYIGIVSSGGTTYYASWAKGRFTISKDTSKNTVYLQMNSLRAEDTASYYCAKDLYYGPTTQSAFNLWGQGTSVTVSS
In turn, B4 displayed a Kd in assay [4] of 41 nM.

B5: CDR-13 (bispecific antibody)
heavy: B2 heavy with N106D
light: B2 light with R23G, Q44K, A45S
notes: no Fc
Take B5: binding in assay [5] was characterised by a dissociation constant (Kd) of 11 nM.

B6: CDR-8 (bispecific antibody)
heavy: B2 heavy with N106D, S323R, D324P, G325S
light: B4 light with S310R, D311P, G312S, Q457Y
notes: no Fc; also called dual pMHC TCE; dual pMHC-targeting T cell engager in Fab-(scFv)2 format
In assay [4], B6 yielded a Kd of 0.1 nM.
